± gives the uncertainty stated by the source.
Experiment: protein stability index of a GFP-peptide fusion (yeast GPS) (PSI 1-4); higher = more stable; sorted into four equal gates, so the index is relative within each strain
Procedure, shortened: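 Yeast carrying a pooled library were grown to mid-log phase in leucine-free medium. Each library plasmid expresses Cherry and has a tiled 17-residue yeast protein peptide fused downstream of GFP. Cells were sorted into four equal gates by GFP/Cherry ratio, and plasmids from each gate were PCR-amplified, Illumina-sequenced and assigned to strains by barcode. Summing, across gates, the read frequency times the gate number gave each peptide's protein stability index.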

| Sequence | protein stability index (doa10∆) | protein stability index (pdr5∆) | protein stability index (san1∆) | protein stability index (ubr1∆) |
| --- | --- | --- | --- | --- |
| RDGVLTVTLNKNREVVQ [RRP45] | 2.71 ± 0.11 | 2.93 ± 0.11 | 2.81 ± 0.08 | 2.73 ± 0.088 |
| RDRKLITDKGTVDGRLY [YJL039C/NUP192] | 3.16 ± 0.12 | 3.22 ± 0.074 | 3.19 ± 0.071 | 3.17 ± 0.076 |
| RDRTSGQKLLAIKYGYE [SRB4] | 2.9 ± 0.15 | 3.17 ± 0.11 | 3.11 ± 0.084 | 3.23 ± 0.096 |
| RDVELSSDELKVIEEQL [SMC4] | 3.27 ± 0.058 | 3.25 ± 0.072 | 2.94 ± 0.054 | 3.26 ± 0.055 |
| REAIRPGHEMEDFLDKS [AAR2] | 3.23 ± 0.062 | 2.87 ± 0.056 | 3.24 ± 0.044 | 3.22 ± 0.036 |
| REDTPLSQNESTRASTV [ISW2] | 2.96 ± 0.067 | 3.11 ± 0.058 | 2.96 ± 0.052 | 2.97 ± 0.048 |
| REHSLQLFRTNKVQIMI [PRP28] | 1.61 ± 0.063 | 1.75 ± 0.065 | 1.61 ± 0.084 | 2.07 ± 0.037 |
| REKNALKRLAWQYIVID [ISW2] | 2.1 ± 0.099 | 1.74 ± 0.14 | 1.76 ± 0.12 | 2.03 ± 0.082 |
| REKRAREKAEAEAEKKK [RPL13A] |  | 3.62 ± 0.13 | 3.31 ± 0.061 |  |
| RENIAMLKRFFPGVKGL [SMC1] | 2.5 ± 0.17 | 2.49 ± 0.2 | 2.01 ± 0.13 | 2.43 ± 0.15 |
| RERRIHVTQEDFELAVG [RPT6] | 2.38 ± 0.074 | 2.74 ± 0.06 | 2.08 ± 0.074 | 2.61 ± 0.066 |
| REYLEEYKSLFVVGVDN [RPP0] | 3.11 ± 0.075 | 2.55 ± 0.087 | 2.91 ± 0.1 | 3.24 ± 0.071 |
| RFEVINNETEQLKAEEK [SMC1] | 1.72 ± 0.08 | 2.06 ± 0.092 | 3.05 ± 0.13 | 2.6 ± 0.12 |
| RFNHLVTRLFFICSIIQ [YML031W/NDC1] | 1.22 ± 0.046 | 1.29 ± 0.039 | 1.32 ± 0.086 | 1.49 ± 0.039 |
| RFRKAQCPIIERLTNSL [RPS5] | 2.32 ± 0.2 | 2.82 ± 0.26 |  | 2.07 ± 0.21 |
| RFSYSPPKEGNYEIVFD [YMR129W/POM152] | 3.05 ± 0.29 | 3.24 ± 0.18 | 3.13 ± 0.071 | 3.45 ± 0.16 |
| RFWSFMKTQRFVSNMGF [SIR4] | 1.55 ± 0.21 | 1.4 ± 0.11 | 1.82 ± 0.13 | 1.68 ± 0.048 |
| RGEIREIEQVCKQVHDK [MED7] | 3.06 ± 0.077 | 3.27 ± 0.046 | 2.8 ± 0.062 | 2.87 ± 0.073 |
| RGFGKINKQRVPLSDNA [RPL7A] | 3.03 ± 0.091 | 3.5 ± 0.11 | 3.29 ± 0.094 | 2.91 ± 0.066 |
| RGGGHHSFEDAHTPMLQ [FAS1] | 3.3 ± 0.26 | 3.48 ± 0.21 |  |  |
| RGLTPQEFFFHAMGGRE [RPO21] | 2.32 ± 0.05 | 2.42 ± 0.054 | 2.2 ± 0.074 | 2.35 ± 0.046 |
| RGVRPYKHIDASGSINR [RPS19A] | 3.23 ± 0.089 | 3.42 ± 0.1 | 3.1 ± 0.062 | 3.23 ± 0.091 |
| RHHWQYTKASLAKERQK [SSN8] | 1.74 ± 0.072 | 1.66 ± 0.07 | 1.4 ± 0.14 | 2.14 ± 0.064 |
| RHMALLVDVMTTQGGLT [RPO21] | 1.92 ± 0.15 | 2.38 ± 0.092 | 2.44 ± 0.09 |  |
| RHNKSHTLCNRCGRRSF [RPL37A] | 3.25 ± 0.045 | 3.18 ± 0.064 | 2.82 ± 0.042 | 3.08 ± 0.039 |
| RHSNALVDILPPDSDSS [RPT3] | 2.51 ± 0.076 | 2.65 ± 0.067 | 2.69 ± 0.062 | 2.47 ± 0.056 |
| RIFKITEKLSPLASEES [YGL100W/SEH1] | 2.82 ± 0.056 | 2.5 ± 0.055 | 2.41 ± 0.066 | 2.57 ± 0.032 |

| Sequence | protein stability index (doa10∆) | protein stability index (pdr5∆) | protein stability index (san1∆) | protein stability index (ubr1∆) |
| --- | --- | --- | --- | --- |
| RIGKHRKHPGGRGMAGG [RPL28] | 2.92 ± 0.12 | 2.63 ± 0.24 | 2.97 ± 0.1 | 3.22 ± 0.16 |
| RIHTNDNDIMNLGSRTK [SSN3] | 3.08 ± 0.048 | 2.97 ± 0.043 | 2.95 ± 0.035 | 3.03 ± 0.037 |
| RIIEKSVRRSGALDVEG [RRP45] | 2.43 ± 0.07 | 2.65 ± 0.075 | 2.47 ± 0.11 | 2.53 ± 0.072 |
| RIISGDQITKMKDRLVE [RPN9] |  |  | 3.34 ± 0.26 | 2.69 ± 0.19 |
| RILSTLDRELLKPSMSV [RPT3] | 3.04 ± 0.081 | 2.73 ± 0.11 | 3.07 ± 0.073 | 2.57 ± 0.15 |
| RIYTNSFIDIMEVLGIE [RPO21] | 2.84 ± 0.059 | 2.94 ± 0.052 | 3.02 ± 0.045 | 2.81 ± 0.041 |
| RKANREEKLKANKEKKR [RPL24B] | 2.86 ± 0.074 | 1.96 ± 0.065 | 2.12 ± 0.087 | 2.27 ± 0.053 |
| RKKKFVLDVDPKYAKQK [ISW2] | 2.91 ± 0.077 | 2.45 ± 0.066 | 2.25 ± 0.12 | 2.66 ± 0.076 |
| RKWAARAASAKIESSVE [RPS8A] | 3.21 ± 0.087 | 3.2 ± 0.062 | 2.74 ± 0.056 | 3.4 ± 0.054 |
| RKYEISFGKIYVTKPMV [RPB2] | 1.95 ± 0.092 | 2.44 ± 0.21 | 1.88 ± 0.19 | 2.16 ± 0.11 |
| RLAKKPSMKKIKIEPSA [SIR3] | 2.48 ± 0.094 | 3.06 ± 0.099 | 2.76 ± 0.071 | 2.88 ± 0.065 |
| RLGFFYNDQLYVKEKLE [RPN7] | 2.56 ± 0.17 | 3.13 ± 0.19 |  | 3.5 ± 0.087 |
| RLISQSLLASKSTYRTP [RIP1] | 2.79 ± 0.12 | 3.04 ± 0.21 | 2.82 ± 0.22 | 2.45 ± 0.14 |
| RLMMNSKVGSADTGRDD [RPN11] | 3.39 ± 0.085 | 3.36 ± 0.068 | 3.51 ± 0.058 | 3.52 ± 0.07 |
| RLNYLYQISAYQTRARQ [RPR2] | 1.56 ± 0.034 | 1.84 ± 0.037 | 1.85 ± 0.054 | 1.89 ± 0.035 |
| RLQAKRLKDVEWVKLHR [RMP1] | 2.97 ± 0.069 | 3.09 ± 0.076 | 3.15 ± 0.056 | 2.03 ± 0.062 |
| RLQQGRRLPMTMFTAEQ [SNF2] | 3.09 ± 0.053 | 3.19 ± 0.048 | 3.13 ± 0.043 | 3.27 ± 0.045 |
| RLRKRVTIIPLDKIYTR [SMC2] | 2 ± 0.073 | 1.66 ± 0.095 | 1.84 ± 0.071 | 1.36 ± 0.051 |
| RLTMGNVFTPEISSQIE [RRI2] | 2.7 ± 0.11 | 3.06 ± 0.079 | 2.95 ± 0.1 | 2.92 ± 0.09 |
| RLWLKKVMEEEEQDCKC [POP8] | 2.5 ± 0.095 | 2.9 ± 0.084 | 3.07 ± 0.079 | 2.8 ± 0.083 |
| RMNTIITHPGKMELVYV [SIR4] |  |  |  | 1.21 ± 0.24 |
| RMPIMLRSNKCILYDAD [RET1] | 1.23 ± 0.15 | 1.41 ± 0.11 | 1.25 ± 0.25 | 1.77 ± 0.095 |
| RMRFPPFDDDEPPLSYE [PRP8] | 2.63 ± 0.047 | 3.06 ± 0.051 | 2.95 ± 0.035 | 2.61 ± 0.034 |
| RMRNRALREMRKSDQQD [POP1] | 3.61 ± 0.13 | 3.63 ± 0.17 | 3.23 ± 0.11 | 3.13 ± 0.13 |
| RMRVSVLEKYEVIGYIA [SSN3] | 1.4 ± 0.14 | 1.56 ± 0.2 | 1.09 ± 0.27 | 1.15 ± 0.049 |
| RMSYGSHDKKTKCSTVV [SRP14] | 2.96 ± 0.092 | 3.07 ± 0.12 | 3.19 ± 0.045 | 3.33 ± 0.088 |
| RNEQVTIELKNGTTVWG [SMD1] | 1.23 ± 0.099 | 1.78 ± 0.11 | 1.49 ± 0.24 | 1.16 ± 0.094 |
